Measurements reported in publication PMC5587771.
Like-named read-outs stand apart in the source and are kept apart here.

B1: SmAP2-cRBM, FAM (ssRNA)
RNA: GGAUGGAUAUUAGGAAAUG
B2: poly(U)15 (ssRNA)
RNA: UUUUUUUUUUUUUUU
B3: 1742-RBM (ssRNA)
RNA: GGAUGGAUAUUAGGUACUGGG
B4: 2194-RBM (ssRNA)
RNA: GGAGAUAUAGUAGGAUAG
B5: SmAP2-cRBM (ssRNA)
RNA: GGAUGGAUAUUAGGAAAUG

Key:
SmAP2 [1] = target: T1, SmAP2 (Sulfolobus solfataricus, UniProt Q980S8 1-87); experiment: MST
SmAP1 = target: T2, SmAP1 (Sulfolobus solfataricus, UniProt Q97ZQ0 1-79); experiment: EMSA
T2 sequence: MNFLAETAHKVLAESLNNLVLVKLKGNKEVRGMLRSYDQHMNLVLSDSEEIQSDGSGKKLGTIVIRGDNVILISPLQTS

SmAP2 T40H = SmAP2 T40H (Sulfolobus solfataricus, UniProt Q980S8 1-87, T40H); experiment: EMSA
SmAP2, NT-647 labelled = SmAP2, NT-647 labelled (Sulfolobus solfataricus, UniProt Q980S8 1-87); experiment: MST
SmAP2 [2] = target: T1, SmAP2; experiment: MST; remark: listed apart in the source

Binder	Kd (SmAP2, NT-647 labelled)	Kd (SmAP2 [2])	other results
B1	–	–	Kd (SmAP2 [1]): 32.7 ± 14.4 nM; binding result (SmAP1): no binding; binding result (SmAP2 T40H): no binding
B2	426 ± 92 nM	–	–
B3	–	5.9 ± 5.5 nM	–
B4	–	14.4 ± 3.3 nM	–
B5	42.1 ± 17.8 nM	–	–
